Data from PMC2697666 (Journal of molecular biology, 2009).

Biological target: human factor Xa (human)
Sequence (P00742 41-488): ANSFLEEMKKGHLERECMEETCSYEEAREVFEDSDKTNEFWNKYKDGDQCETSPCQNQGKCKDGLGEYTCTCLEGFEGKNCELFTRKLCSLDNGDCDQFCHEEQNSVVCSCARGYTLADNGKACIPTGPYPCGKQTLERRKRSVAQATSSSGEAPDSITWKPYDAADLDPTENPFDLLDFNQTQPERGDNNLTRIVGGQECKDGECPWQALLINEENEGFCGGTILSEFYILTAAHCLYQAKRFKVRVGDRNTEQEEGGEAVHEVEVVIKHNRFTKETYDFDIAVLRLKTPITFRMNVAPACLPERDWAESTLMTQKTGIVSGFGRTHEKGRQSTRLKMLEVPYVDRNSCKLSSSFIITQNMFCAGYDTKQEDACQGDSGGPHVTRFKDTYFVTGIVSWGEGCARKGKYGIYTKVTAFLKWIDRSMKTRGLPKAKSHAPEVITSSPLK

| second-order rate constant of factor Xa inhibition (kapp), with pentasaccharide [M⁻¹ s⁻¹] | Substance |
| --- | --- |
| 194000 | S137A/S380C antithrombin (from UniProt P01008 33-464) (natural protein) |
| 664000 | S137A/V375C antithrombin (from UniProt P01008 33-464) (natural protein) |
| 331 | S137A/V375C/S380C antithrombin (from UniProt P01008 33-464) (natural protein) |
| 756000 | recombinant beta-glycoform S137A antithrombin (from UniProt P01008 33-464) (natural protein) |
